The values below come from article PMC9705548, “Altered tRNA processing is linked to a distinct and unusual La protein in Tetrahymena thermophila”.

As a reminder, the Kd is the equilibrium constant for the complex coming apart.

Data set [1] deals with T1, Mlp1 (Tetrahymena thermophila, UniProt Q23RK6 1-340).
T1 sequence: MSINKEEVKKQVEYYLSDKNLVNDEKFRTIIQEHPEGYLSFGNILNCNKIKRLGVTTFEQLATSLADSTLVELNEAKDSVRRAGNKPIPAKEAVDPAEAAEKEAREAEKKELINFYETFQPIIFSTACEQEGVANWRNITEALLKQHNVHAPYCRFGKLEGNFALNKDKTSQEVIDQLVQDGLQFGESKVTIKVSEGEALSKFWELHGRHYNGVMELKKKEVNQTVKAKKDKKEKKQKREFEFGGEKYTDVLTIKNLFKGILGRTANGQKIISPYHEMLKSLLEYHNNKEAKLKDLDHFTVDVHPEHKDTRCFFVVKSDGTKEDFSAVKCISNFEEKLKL
Put plainly: competition; EMSA: 20 mM Tris-HCl pH 7.4, 100 mM KCl, 1 mM EDTA, 5 mM beta-mercaptoethanol, 10% glycerol; ~0.1 nM RNA refolded from 95 C; 30 min at 30 C; 8% native PAGE at 4 C. To be noted: protein: recombinant; tags: N-terminal 6xHis (pET28a); label: none.

Data set [2] has as its target T1, Mlp1. Put plainly: EMSA; 20 mM Tris-HCl pH 7.4, 100 mM KCl, 1 mM EDTA, 5 mM beta-mercaptoethanol, 10% glycerol; ~0.1 nM RNA; 30 min at 30 C; 8% native PAGE at 4 C. To be noted: protein: recombinant, tags: N-terminal 6xHis (pET28a). In general terms: Mobility shift assays separate free from complexed probe on a gel.
Another data set deals with T2, hLa (Homo sapiens, UniProt P05455 1-408).
T2 sequence: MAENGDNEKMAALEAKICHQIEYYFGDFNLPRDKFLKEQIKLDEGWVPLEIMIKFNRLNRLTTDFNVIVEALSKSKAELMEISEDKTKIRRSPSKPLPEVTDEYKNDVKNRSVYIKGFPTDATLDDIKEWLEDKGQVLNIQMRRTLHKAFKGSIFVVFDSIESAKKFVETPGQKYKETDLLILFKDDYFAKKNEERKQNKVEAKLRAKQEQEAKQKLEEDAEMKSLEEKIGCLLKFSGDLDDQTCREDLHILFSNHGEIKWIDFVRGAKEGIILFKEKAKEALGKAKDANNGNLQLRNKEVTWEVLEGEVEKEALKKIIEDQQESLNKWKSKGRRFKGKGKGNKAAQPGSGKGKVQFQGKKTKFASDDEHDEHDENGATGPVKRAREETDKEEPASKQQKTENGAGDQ
Put plainly: competition; EMSA: 20 mM Tris-HCl pH 7.4, 100 mM KCl, 1 mM EDTA, 5 mM beta-mercaptoethanol, 10% glycerol; ~0.1 nM RNA refolded from 95 C; 30 min at 30 C; 8% native PAGE at 4 C. The conditions noted are these: protein: recombinant; tags: 6xHis (encoded in reverse primer, pET28a); label: none.

In a further data set the target is T3, Mlp1 95-250 (Tetrahymena thermophila, UniProt Q23RK6 95-250).
T3 sequence: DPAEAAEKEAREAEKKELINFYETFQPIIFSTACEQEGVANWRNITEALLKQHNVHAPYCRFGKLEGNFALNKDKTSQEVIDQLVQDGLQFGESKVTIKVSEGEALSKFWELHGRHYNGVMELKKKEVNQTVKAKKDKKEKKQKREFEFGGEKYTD
As to the kind of experiment: EMSA; EMSA: 20 mM Tris-HCl pH 7.4, 100 mM KCl, 1 mM EDTA, 5 mM beta-mercaptoethanol, 10% glycerol; ~0.1 nM RNA refolded from 95 C; 30 min at 30 C; 8% native PAGE at 4 C. The conditions noted are these: protein: recombinant; tags: N-terminal 6xHis (pET28a); label: 32P.

The target of another data set is T4, Mlp1 1-95 (Tetrahymena thermophila, UniProt Q23RK6 1-95).
T4 sequence: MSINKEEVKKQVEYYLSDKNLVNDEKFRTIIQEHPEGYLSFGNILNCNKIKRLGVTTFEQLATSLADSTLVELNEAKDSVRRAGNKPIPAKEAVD
The description is as above. The conditions noted are these: protein: recombinant; tags: N-terminal 6xHis (pET28a); label: 32P.

For data set [3], the target named is T1, Mlp1. Described as above. To be noted: protein: recombinant, tags: N-terminal 6xHis (pET28a).
The target of a further data set is T5, Mlp1 Q11A/Y14A (Tetrahymena thermophila, UniProt Q23RK6 1-340, Q11A;Y14A).
T5 sequence: T1 sequence with Q11A, Y14A
Described as above. The conditions noted are these: protein: recombinant; tags: N-terminal 6xHis (pET28a).

A further data set deals with T6, Mlp1 1-250 (Tetrahymena thermophila, UniProt Q23RK6 1-250).
T6 sequence: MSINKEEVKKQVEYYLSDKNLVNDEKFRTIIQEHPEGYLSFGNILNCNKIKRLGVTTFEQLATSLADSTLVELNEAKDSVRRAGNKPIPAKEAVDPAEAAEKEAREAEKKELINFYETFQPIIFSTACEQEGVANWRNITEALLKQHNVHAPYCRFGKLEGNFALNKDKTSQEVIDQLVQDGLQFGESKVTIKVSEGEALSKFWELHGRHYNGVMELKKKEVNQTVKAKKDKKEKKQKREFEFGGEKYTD
The data set is described as above. The conditions noted are these: protein: recombinant; tags: N-terminal 6xHis (pET28a).

The mark [4] stands for this setting: label: 32P-UTP body label, tRNA fold.

Positions count from the first letter of the chain named.

Regarding CUGCUGUCUU (ssRNA) [U-3C], the binding result with Mlp1 [1] is “binds”.

B1: pre-tRNA LeuAAG 5'-leader only (+5'PPP) (structured_RNA)
RNA: GAGCGAAGAUGAAGUGGCCGAGCGGUCUAAGGCGGUAGAUUAAGGCUCUAUUCCGAAAGGGCGCGAGUUCGAAUCUCGCCUUCAUCA
Consider B1, for which the Kd in the data set with Mlp1 [2] (tRNA fold) amounted to 714 ± 21 nM. In the case of CUGCUGCCCC (ssRNA) [4C], the binding result with hLa is listed as “no binding”.

With CUGCUGUUCU (ssRNA) [U-2C], the binding result with Mlp1 [1] was “binds”. Take CUGCUGUUUU (ssRNA) [uridylate RNA of Supplementary Fig. S4b]: the binding result with Mlp1 95-250 and with Mlp1 1-95 was “no binding” in each case.

B2: mature tRNA GlnUUA (structured_RNA)
RNA: GGUUCCAUAGUAUAGUGGUUAGUACUGGGGACUUUAAAUCCCUUGACCUGGGUUCGAAUCCCAGUGGGACCU
With B2, in the data set with Mlp1 [2] (setting [4]), the Kd is 801 ± 62 nM.

B3: pre-tRNA GlnUUA 3'-trailer only (structured_RNA)
RNA: GGUUCCAUAGUAUAGUGGUUAGUACUGGGGACUUUAAAUCCCUUGACCUGGGUUCGAAUCCCAGUGGGACCUGCUUUUU
On to B3, for which the equilibrium dissociation constant (Kd) with Mlp1 [2] (label: 32P-UTP body label) worked out at 740 ± 40 nM.

B4: pre-tRNA LeuAAG 5' 3' (structured_RNA)
RNA: GAGCGAAGAUGAAGUGGCCGAGCGGUCUAAGGCGGUAGAUUAAGGCUCUAUUCCGAAAGGGCGCGAGUUCGAAUCUCGCCUUCAUCAGAUUUUU
For the molecule B4, in the data set with Mlp1 [2] (tRNA fold), the Kd amounted to 586 ± 15 nM.

B5: pre-tRNA GlnUUA 5' 3' (structured_RNA)
RNA: GCAUGUCCGGUUCCAUAGUAUAGUGGUUAGUACUGGGGACUUUAAAUCCCUUGACCUGGGUUCGAAUCCCAGUGGGACCUGCUUUUU
With B5, in the data set with Mlp1 [2] (setting [4]), the Kd worked out at 687 ± 44 nM.

B6: mature tRNA LeuAAG (structured_RNA)
RNA: GAUGAAGUGGCCGAGCGGUCUAAGGCGGUAGAUUAAGGCUCUAUUCCGAAAGGGCGCGAGUUCGAAUCUCGCCUUCAUCA
Take B6: the Kd in the data set with Mlp1 [2] (tRNA fold) turned out to be 831 ± 33 nM.

B7: pre-tRNA LeuAAG 3'-trailer only (structured_RNA)
RNA: GAUGAAGUGGCCGAGCGGUCUAAGGCGGUAGAUUAAGGCUCUAUUCCGAAAGGGCGCGAGUUCGAAUCUCGCCUUCAUCAGAUUUUU
As to B7, the Kd in the data set with Mlp1 [2] (label: 32P-UTP body label) stood at 658 ± 36 nM.

B8: pre-tRNA GlnUUA 5'-leader only (structured_RNA)
RNA: GCAUGUCCGGUUCCAUAGUAUAGUGGUUAGUACUGGGGACUUUAAAUCCCUUGACCUGGGUUCGAAUCCCAGUGGGACCU
On to B8, for which the Kd with Mlp1 [2] (label: 32P-UTP body label) was 804 ± 16 nM.

In the case of CCCCCCCCCC (ssRNA) [C10], the binding result with Mlp1 [3] (label: 32P) is “no binding”. Turning to CUGCUGUUUC (ssRNA) [U-1C], the binding result with Mlp1 [1] is “binds”. With CUGCUGUUUU (ssRNA) [4U (CUGCUGUUUU-3'OH)], the results for the binding result with Mlp1 Q11A/Y14A, with Mlp1 [3] and with Mlp1 1-250 were “no binding”, “binds” and “binds”, respectively.
